Assay results: the supplement of paper PMC12042874
± gives the uncertainty stated by the source.

Assay: amyloid nucleation score (Sup35N fusion, yeast selection) (log enrichment); library NNK2; higher = more nucleation; inactive = no reads after selection
How it was run: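 The nucleation score, computed with DiMSum, is the log enrichment of output over input reads, centred on the mode score of non-aggregating sequences. Sequences with under 100 input reads were dropped. Reads were generated by Illumina sequencing of plasmid inserts from psi-negative yeast with Sup35N fused to peptides of 20 random codons, induced with 100 μM copper sulfate for 24 hours and grown 7 days at 30°C on medium lacking adenine and uracil.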

Substance	amyloid nucleation score
WNLFMQYAFYRMDLASK	-0.689 ± 1.1
WPLRL	0.348 ± 0.31
WQENFSHCNLSMLCEVNLSK	-0.44 ± 0.49
WQHGVRSGQQECPRLEGNRV	0.379 ± 0.23
WRGFTECRVKLRYSGSGQFC	2.92 ± 0.058
WRQLRSPVYRPYCL	-0.124 ± 0.32
WRYIAVNFSNAFNDLVDSCA	0.117 ± 0.79
WSCYKNWG	-1.13 ± 0.5
WSEVGWFIYDKFREFVFSIK	inactive
WSGQPGFSTYGICLLSVRLK	-0.286 ± 0.65
WSITGG	0.477 ± 0.66
WSLLV	0.478 ± 0.8
WSLYHASERENIRPALTSIW	0.325 ± 0.21
WSLYLVVLAQ	0.294 ± 0.51
WSNSYHRLILWRQCIFGLLV	2.76 ± 0.081
WSRIGG	-0.498 ± 0.63
WSSTVKSVKSAGAP	0.475 ± 0.38
WSTFSTFTGYSA	-0.335 ± 0.5
WSVCKRLCNVEMLAENLAID	-0.67 ± 0.79
WSVVLWDVEGYWASASSQLW	0.907 ± 0.35
WSYCVNERSVIKQGLTCAYV	-0.28 ± 0.76
WTDTGMTYLFCNLFWLACGI	5.634 ± 0.03
WTHVHTRKDSLLSTGNCVPI	inactive
WTTYLGSFKWRNRVKWWPAP	1.88 ± 0.18
WTYACPKRHNVIVVC	3 ± 0.062

Substance	amyloid nucleation score
WTYDVQGREVCYVKPYLAMW	1.07 ± 0.32
WVLDVSFTVVFKMIHGVVSL	3.9 ± 0.14
WVLMYDICGS	inactive
WVLVYIICFTQDDS	-1.4 ± 1.1
WVSCVVCFWIDHESAALESV	8.784 ± 0.036
WVSSIGGDWGMIYSLLQLYW	0.205 ± 0.46
WVSSQAEWGVLCGICRSLES	inactive
WVVRGWLGV	0.23 ± 0.38
WWLYAL	3.74 ± 0.11
WWYGGLEMGFIICFRIPNVI	-0.606 ± 1.1
WYFIGKCRDGVSDGMRNNVR	0.148 ± 0.22
WYFPSVKIIENLW	6.035 ± 0.038
WYGFNNDTEWKNTKAFW	1.83 ± 0.084
WYNCSALWESLMFNGLQAVW	-0.268 ± 0.48
YAQWYDCTSSAEKRYKKVLS	-0.473 ± 0.31
YAWKNPYSCWICR	-0.174 ± 0.44
YCCCVSMFVRTLIARDYNLN	8.154 ± 0.078
YCCTDQGFSLGYRMLWCRDN	-1 ± 0.24
YCERAHALICSLRQVGWVPR	0.719 ± 0.25
YCGDLRCCKTHLSCRSCVSN	inactive
YCITEVRWAVA	5.61 ± 0.058
YCMFFCGCVTDPECNVPSDM	3.49 ± 0.1
YCMNLKDSTLLILKQPARST	7.045 ± 0.047
YCSYQVVRGRPSVAGRDNLQ	-0.424 ± 0.63
YCVRVMYNKLRLHMNIVVVC	0.705 ± 0.58

Substance	amyloid nucleation score
YDAMFS	1.09 ± 0.45
YDDKLHRPDDFGCRDHSPGM	0.495 ± 0.41
YDEYF	inactive
YDGAIDITTGLFLCFWVCTV	3.96 ± 0.047
YDLGLKFNSHLATWGGFYHW	-0.746 ± 0.76
YDNKASDVMVNYLRHICVYS	inactive
YDNTEASGLSWRTLLQGAVW	0.562 ± 0.45
YDVSYYCNCIAVLKSRLREL	5.203 ± 0.031
YEGNFAHCFSLGPDHVID	-0.202 ± 1.1
YEVREFSCHGINIKMEGIYC	1.48 ± 0.2
YEVSIIFCRLFSILIRPGTS	-1.1 ± 1.1
YFCCVSTIARSMFLSRGSGR	8.771 ± 0.058
YFCSLDSMPQSSVFDYLSAL	-0.43 ± 1.1
YFGTLSLLKHEVA	-0.289 ± 0.3
YFKCGGHAFCVSNYARLNDF	-0.573 ± 0.42
YFLGAFTYVFCACHSFCRYW	1.86 ± 0.15
YFLGMVPSFSLWYETSQSQC	-0.768 ± 0.42
YFLSSFVSNWWAQYVYW	inactive
YFMLPLYMMLLGYFYKTICS	6.933 ± 0.067
YFNIYAVEIVLGIRLFNNVD	1.99 ± 0.067
YFRISTWRFRTRHLGPCERG	5.708 ± 0.054
YFSCEFDTYHGEYCCMWQIM	0.069 ± 0.8
YFVCVASDGNMGIRYATR	inactive
YFVRFEDIGWTVSVHTGDSG	-0.063 ± 0.45
YFYNGSRA	-1.61 ± 1.1

Substance	amyloid nucleation score
YGCCGKDFCVGPRGVCAV	1.05 ± 0.24
YGGKSHPLIWFACIWSYIVN	3.04 ± 0.07
YGPLNFDTSP	0.74 ± 0.16
YGQKVMPESMKQSFNFMTEI	-0.573 ± 0.63
YGQSRANDTDDPGWGTVMRL	0.3 ± 0.74
YGSRVYLRVWKLGCFGQYGE	1.68 ± 0.27
YGSVR	0.669 ± 0.37
YGVGMVWMVIECEEVGYVRR	0.683 ± 0.16
YHCENDEALIRDSGPSKTTK	0.485 ± 0.41
YHCGFGAS	0.837 ± 0.44
YHFYMASYKAFKSGGVGTGG	-1.56 ± 1.1
YHGFSQDCLNV	-0.042 ± 0.55
YHGVLSFLII	1.29 ± 0.36
YHRCMKGVRDFVKLVDDCML	-1.09 ± 0.49
YHWIIIRVA	-0.601 ± 0.79
YHWNVGIDGYLNSTMLLQAY	inactive
YHYANDMFFN	-0.727 ± 0.56
YICLAVGDVNGEMNYWVIRG	6.865 ± 0.043
YIFSILRDKSVPFDSQVSKN	-0.797 ± 1.1
YIFSIS	-1.26 ± 0.62
YIIRRYWARPSYVNSFM	-0.31 ± 0.74
YIIWLI	inactive
YILSDIIFMGIWGV	4.1 ± 0.13
YINSGV	inactive
YISIPDVCLLHSIPQSRASI	inactive

Substance	amyloid nucleation score
YIVQWSFMVSRSQ	1.62 ± 0.086
YKLGTRMSECLRNNVLDSSS	inactive
YKNVFHNCILADSSVYWNTH	5.764 ± 0.044
YLAFSMEHAGCLHHRVSGIM	5.46 ± 0.084
YLEWIL	-2.06 ± 0.54
YLFVQEKKRVFRYFRWRHPV	-0.032 ± 0.8
YLGICTMFDTGIGEIFTCCT	5.78 ± 0.069
YLIAELFQIVDACLWLSSWR	-0.328 ± 0.38
YLIKMTCVGIMFSV	6.592 ± 0.04
YLKFIKANVRTSGKKLA	-0.562 ± 1.1
YLKGNIKATVFTNSPMLV	-0.085 ± 0.79
YLLGRMKWLNTVRWERRDEF	3.51 ± 0.083
YLLTLFGPRMTD	-1.45 ± 0.76
YLLWSTVSAAFSDCRGLKYG	inactive
YLLYSNRQISYTFYCDDTVC	inactive
YLPVLEVVPTNGVPHDRFWS	1.08 ± 0.29
YLQLRMLTVMGCLRLCTSMP	0.386 ± 0.34
YLSIFRVLSIFCVWLHTVGN	inactive
YLSKTLIAVMDFCVLDTG	-0.971 ± 0.48
YLYGGVYKIKIMILPFDRAL	7.621 ± 0.044
YLYLRKASEFLKGRWWVKYK	inactive
YLYPSCCIRYILILNFYTVI	0.013 ± 0.16
YLYSAQNIRGRWLFCSMKCD	-1.03 ± 0.62
YLYSNG	inactive
YMNQERVQTVFDSRICFRLH	-0.246 ± 0.35

Substance	amyloid nucleation score
YMRDFYRVRNYRRCCVVCPS	-1.59 ± 1.1
YMSFPLDVLVICLCRIVIES	0.089 ± 1.1
YMTEIANKRSPRACWIGERM	-0.156 ± 0.79
YNCGSLILNRISSGL	-2.21 ± 0.76
YNNAGGQVDLNLCYGLDVFL	inactive
YNQSMYFRVLGFYTYPSDRG	2.32 ± 0.07
YNRNRCEVWRLFCLFCLLCF	2 ± 0.089
YNSCFYQKWVMCGHSCYHQV	4.77 ± 0.11
YNSTLKFLSKLKLVNIIGTV	-1.26 ± 1.1
YPDDLVMPLDDQRCKARLGH	0.665 ± 0.57
YPEADALLRFGVMDIHN	0.085 ± 0.36
YPFLIS	-0.922 ± 1
YPVLN	-0.834 ± 0.49
YQDSKRE	-0.833 ± 1.1
YQIFNKLVAHFKYNYTQTDR	-0.902 ± 0.56
YQNIVIRLLVLCYNVTDGLV	3.02 ± 0.14
YQRMPSIYGEVVCHQSCQGV	-0.069 ± 0.45
YQRRRSGGLELDWSNTMQGC	-0.015 ± 0.31
YRCVWYGFPSRSWAGSSDIL	0.309 ± 0.8
YRDECWLSYS	-0.347 ± 0.56
YRKAGSSQTGNFLLLLLDGG	0.067 ± 0.63
YRLMLMS	0.43 ± 0.42
YRMAAVIYIYIIRFSGSCMW	-2.08 ± 0.62
YRNRVSLRKYRDARYQLCCT	0.247 ± 0.25
YRVAMYMDSVFIMYAYDIPN	2.1 ± 0.14

Substance	amyloid nucleation score
YRVCAYLAAKEFDSRHGGDA	0.744 ± 0.37
YRVWWSVIYVKWVG	-0.618 ± 1.1
YRWDHILDVGSSFVL	3.61 ± 0.064
YRWVRVSNRGCRTNMIKYMS	-1.66 ± 0.36
YSCMVFSLGRVMELSGHMFG	inactive
YSFGVQC	0.067 ± 0.25
YSFNLCNS	-0.013 ± 0.45
YSFYAGFVNYIKVWNNRG	4.23 ± 0.05
YSGRREILYHNRVSPHCMNL	2.64 ± 0.12
YSHAGEASWDYVSLWFSSRK	0.49 ± 0.46
YSIYELPTHYLKCLRSYKSK	-0.627 ± 1.1
YSMSLASSRCR	inactive
YSNRVTLMSYDIN	inactive
YSNSGVTWLRMHNVMFCGEG	-0.122 ± 0.32
YSNYTHRNSTLGFKQISRTS	0.063 ± 0.79
YSPLLTLWKIGRIWIAFMIA	0.148 ± 1
YSPSVVVDCRSGRDRNLRGY	-0.254 ± 0.55
YSRVQSRPMCKLRKALHWRV	1.31 ± 0.25
YSSADGPDSDMCRSVLKLVI	0.287 ± 0.25
